Test results taken from the supplement of paper PMC10567573.

B1: TFE3 (parent)
chain: ELPNIKREISETEAKALLKERQKK

Variants of: B1
Assay: protein stability index of a GFP-peptide fusion (GPS, HEK-293T) (PSI 1-6); higher = more stable
Details: c terminus: a fixed tail appended
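Further: lentivirally expressed fusions sorted by FACS into six bins by GFP to DsRed ratio, PSI derived from sequencing read proportions per bin multiplied by bin number.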

Row | Variant | protein stability index
1 | ELPNIKREISETENKALLKERQKK | 2.64
2 | ELPNIKREISETEQKALLKERQKK | 2.39
3 | ELPNIKREISETERKALLKERQKK | 2.51
4 | ELPNIKREISETEEKALLKERQKK | 3.05
5 | ELPNIKREISETEGKALLKERQKK | 3
6 | ELPNIKREISETEPKALLKERQKK | 3.06
7 | ELPNIKREISETEKKALLKERQKK | 2.75
8 | ELPNIKREISETECKALLKERQKK | 2.48
9 | ELPNIKREISETEFKALLKERQKK | 2.83
10 | ELPNIKREISETEDKALLKERQKK | 2.17
11 | ELPNIKREISETEMKALLKERQKK | 2.05
12 | ELPNIKREISETEVKALLKERQKK | 2.45
13 | ELPNIKREISETELKALLKERQKK | 2.54
14 | ELPNIKREISETESKALLKERQKK | 2.22
15 | ELPNIKREISETEHKALLKERQKK | 3.14
16 | ELPNIKREISETEIKALLKERQKK | 2.46
17 | ELPNIKREISETEWKALLKERQKK | 2.69
18 | ELPNIKREISETEYKALLKERQKK | 2.49
19 | ELPNIKREISETETKALLKERQKK | 2
20 | ELPNIKREISPTEAKALLKERQKK | 4.21
21 | ELPNIKREISQTEAKALLKERQKK | 3.29
22 | ELPNIKREISDTEAKALLKERQKK | 2.45
23 | ELPNIKREISWTEAKALLKERQKK | 2.91
24 | ELPNIKREISHTEAKALLKERQKK | 3.1

Row | Variant | protein stability index
25 | ELPNIKREISMTEAKALLKERQKK | 2.78
26 | ELPNIKREISGTEAKALLKERQKK | 3.45
27 | ELPNIKREISFTEAKALLKERQKK | 3.43
28 | ELPNIKREISNTEAKALLKERQKK | 2.99
29 | ELPNIKREISRTEAKALLKERQKK | 2.5
30 | ELPNIKREISSTEAKALLKERQKK | 3.61
31 | ELPNIKREISKTEAKALLKERQKK | 3.48
32 | ELPNIKREISYTEAKALLKERQKK | 3.16
33 | ELPNIKREISATEAKALLKERQKK | 2.89
34 | ELPNIKREISTTEAKALLKERQKK | 3.25
35 | ELPNIKREISVTEAKALLKERQKK | 2.43
36 | ELPNIKREISLTEAKALLKERQKK | 2.79
37 | ELPNIKREISITEAKALLKERQKK | 3.05
38 | ELPNIKREISCTEAKALLKERQKK | 2.87
39 | ELPNIKREISETEAKMLLKERQKK | 2.63
40 | ELPNIKREISETEAKQLLKERQKK | 4.6
41 | ELPNIKREISETEAKCLLKERQKK | 2.2
42 | ELPNIKREISETEAKNLLKERQKK | 4.09
43 | ELPNIKREISETEAKWLLKERQKK | 2.57
44 | ELPNIKREISETEAKLLLKERQKK | 2.34
45 | ELPNIKREISETEAKGLLKERQKK | 3.47
46 | ELPNIKREISETEAKDLLKERQKK | 4.48
47 | ELPNIKREISETEAKELLKERQKK | 4.09
48 | ELPNIKREISETEAKSLLKERQKK | 2.87

Row | Variant | protein stability index
49 | ELPNIKREISETEAKPLLKERQKK | 4.2
50 | ELPNIKREISETEAKKLLKERQKK | 3.91
51 | ELPNIKREISETEAKHLLKERQKK | 4.11
52 | ELPNIKREISETEAKVLLKERQKK | 2.79
53 | ELPNIKREISETEAKILLKERQKK | 3.16
54 | ELPNIKREISETEAKTLLKERQKK | 2.96
55 | ELPNIKREISETEAKFLLKERQKK | 2.08
56 | ELPNIKREISETEAKRLLKERQKK | 3.68
57 | ELPNIKREISETEAKYLLKERQKK | 2.37
58 | ELPNIKREIRETEAKALLKERQKK | 2.91
59 | ELPNIKREIMETEAKALLKERQKK | 2.12
60 | ELPNIKREIKETEAKALLKERQKK | 3
61 | ELPNIKREIWETEAKALLKERQKK | 2.9
62 | ELPNIKREIQETEAKALLKERQKK | 2.68
63 | ELPNIKREIIETEAKALLKERQKK | 3.13
64 | ELPNIKREIVETEAKALLKERQKK | 3.62
65 | ELPNIKREITETEAKALLKERQKK | 2.59
66 | ELPNIKREINETEAKALLKERQKK | 3
67 | ELPNIKREIYETEAKALLKERQKK | 2.35
68 | ELPNIKREIPETEAKALLKERQKK | 4.98
69 | ELPNIKREILETEAKALLKERQKK | 2.57
70 | ELPNIKREISEEEAKALLKERQKK | 5.55
71 | ELPNIKREISEMEAKALLKERQKK | 4.26
72 | ELPNIKREISEREAKALLKERQKK | 4.08

Row | Variant | protein stability index
73 | ELPNIKREISEQEAKALLKERQKK | 4.67
74 | ELPNIKREISENEAKALLKERQKK | 4.46
75 | ELPNIKREISEYEAKALLKERQKK | 4.15
76 | ELPNIKREISEDEAKALLKERQKK | 4.56
77 | ELPNIKREISEWEAKALLKERQKK | 3.31
78 | ELPNIKREISEIEAKALLKERQKK | 4.13
79 | ELPNIKREISEVEAKALLKERQKK | 4.04
80 | ELPNIKREISESEAKALLKERQKK | 2.69
81 | ELPNIKREISEPEAKALLKERQKK | 4.73
82 | ELPNIKREISECEAKALLKERQKK | 2.51
83 | ELPNIKREISEKEAKALLKERQKK | 3.85
84 | ELPNIKREISEFEAKALLKERQKK | 3.78
85 | ELPNIKREISEHEAKALLKERQKK | 4.58
86 | ELPNIKREISELEAKALLKERQKK | 4
87 | ELPNIKREISEGEAKALLKERQKK | 4.73
88 | ELPNIKREISEAEAKALLKERQKK | 2.86
89 | ELPNIKREISETEAKALLQERQKK | 2.83
90 | ELPNIKREISETEAKALLFERQKK | 2.65
91 | ELPNIKREISETEAKALLCERQKK | 2.07
92 | ELPNIKREISETEAKALLHERQKK | 2.36
93 | ELPNIKREISETEAKALLYERQKK | 3.06
94 | ELPNIKREISETEAKALLAERQKK | 2.7
95 | ELPNIKREISETEAKALLVERQKK | 2.8
96 | ELPNIKREISETEAKALLDERQKK | 2.52

Row | Variant | protein stability index
97 | ELPNIKREISETEAKALLGERQKK | 1.71
98 | ELPNIKREISETEAKALLSERQKK | 2.53
99 | ELPNIKREISETEAKALLMERQKK | 2.89
100 | ELPNIKREISETEAKALLIERQKK | 2.84
101 | ELPNIKREISETEAKALLEERQKK | 2.62
102 | ELPNIKREISETEAKALLPERQKK | 2.29
103 | ELPNIKREISETEAKALLNERQKK | 2.57
104 | ELPNIKREISETEAKALLLERQKK | 2.84
105 | ELPNIKREISETEAKALLRERQKK | 2.32
106 | ELPNIKREISETEAKALLWERQKK | 2.29
107 | ELPNIKREISETEAKALLTERQKK | 2.42
108 | ELPNIKREISETEAVALLKERQKK | 2.02
109 | ELPNIKREISETEACALLKERQKK | 3.29
110 | ELPNIKREISETEARALLKERQKK | 3.15
111 | ELPNIKREISETEATALLKERQKK | 2.3
112 | ELPNIKREISETEAMALLKERQKK | 2.41
113 | ELPNIKREISETEALALLKERQKK | 2.08
114 | ELPNIKREISETEAWALLKERQKK | 2.42
115 | ELPNIKREISETEAGALLKERQKK | 2.34
116 | ELPNIKREISETEAQALLKERQKK | 2.46
117 | ELPNIKREISETEAYALLKERQKK | 2.31
118 | ELPNIKREISETEAFALLKERQKK | 2.54
119 | ELPNIKREISETEAIALLKERQKK | 2.21
120 | ELPNIKREISETEAEALLKERQKK | 1.86

Row | Variant | protein stability index
121 | ELPNIKREISETEAAALLKERQKK | 2.5
122 | ELPNIKREISETEADALLKERQKK | 1.98
123 | ELPNIKREISETEAHALLKERQKK | 2.94
124 | ELPNIKREISETEANALLKERQKK | 2.22
125 | ELPNIKREISETEAPALLKERQKK | 4.59
126 | ELPNIKREISETEASALLKERQKK | 2.75
127 | ELPNIKREISETEAKAMLKERQKK | 2.71
128 | ELPNIKREISETEAKAPLKERQKK | 3.56
129 | ELPNIKREISETEAKAELKERQKK | 2.25
130 | ELPNIKREISETEAKAGLKERQKK | 2.76
131 | ELPNIKREISETEAKADLKERQKK | 2.13
132 | ELPNIKREISETEAKAALKERQKK | 2.74
133 | ELPNIKREISETEAKAVLKERQKK | 3.14
134 | ELPNIKREISETEAKANLKERQKK | 2.56
135 | ELPNIKREISETEAKACLKERQKK | 3.09
136 | ELPNIKREISETEAKAWLKERQKK | 2.7
137 | ELPNIKREISETEAKASLKERQKK | 2.32
138 | ELPNIKREISETEAKAKLKERQKK | 3.17
139 | ELPNIKREISETEAKAFLKERQKK | 2.38
140 | ELPNIKREISETEAKAILKERQKK | 2.98
141 | ELPNIKREISETEAKAQLKERQKK | 2.56
142 | ELPNIKREISETEAKAHLKERQKK | 2.12
143 | ELPNIKREISETEAKAYLKERQKK | 2.48
144 | ELPNIKREISETEAKARLKERQKK | 3.27

Row | Variant | protein stability index
145 | ELPNIKREISETEAKATLKERQKK | 2.68
146 | ELPNIKREISETRAKALLKERQKK | 3.43
147 | ELPNIKREISETHAKALLKERQKK | 4.65
148 | ELPNIKREISETFAKALLKERQKK | 3.26
149 | ELPNIKREISETWAKALLKERQKK | 2.56
150 | ELPNIKREISETSAKALLKERQKK | 4.13
151 | ELPNIKREISETLAKALLKERQKK | 3.06
152 | ELPNIKREISETIAKALLKERQKK | 3.33
153 | ELPNIKREISETVAKALLKERQKK | 3.45
154 | ELPNIKREISETNAKALLKERQKK | 3.83
155 | ELPNIKREISETGAKALLKERQKK | 4.58
156 | ELPNIKREISETKAKALLKERQKK | 3.83
157 | ELPNIKREISETYAKALLKERQKK | 3.32
158 | ELPNIKREISETPAKALLKERQKK | 3.92
159 | ELPNIKREISETCAKALLKERQKK | 2.74
160 | ELPNIKREISETQAKALLKERQKK | 4.34
161 | ELPNIKREISETMAKALLKERQKK | 3.71
162 | ELPNIKREISETTAKALLKERQKK | 4.34
163 | ELPNIKREISETAAKALLKERQKK | 4.83
164 | ELPNIKREISETDAKALLKERQKK | 4.12
165 | ELPNIKREISETEAKALRKERQKK | 2.32
166 | ELPNIKREISETEAKALQKERQKK | 2.96
167 | ELPNIKREISETEAKALFKERQKK | 2.28
168 | ELPNIKREISETEAKALWKERQKK | 2.37

Row | Variant | protein stability index
169 | ELPNIKREISETEAKALYKERQKK | 2.92
170 | ELPNIKREISETEAKALMKERQKK | 2.05
171 | ELPNIKREISETEAKALEKERQKK | 2.5
172 | ELPNIKREISETEAKALCKERQKK | 2.6
173 | ELPNIKREISETEAKALHKERQKK | 2.56
174 | ELPNIKREISETEAKALTKERQKK | 2.65
175 | ELPNIKREISETEAKALIKERQKK | 3.06
176 | ELPNIKREISETEAKALAKERQKK | 2.67
177 | ELPNIKREISETEAKALGKERQKK | 1.87
178 | ELPNIKREISETEAKALPKERQKK | 2.77
179 | ELPNIKREISETEAKALDKERQKK | 2.07
180 | ELPNIKREISETEAKALSKERQKK | 2.77
181 | ELPNIKREISETEAKALKKERQKK | 3.19
182 | ELPNIKREISETEAKALVKERQKK | 2.2
183 | ELPNIKREISETEAKALNKERQKK | 2.4
184 | ELPNIKREISETEAKALLKDRQKK | 2.79
185 | ELPNIKREISETEAKALLKFRQKK | 2.03
186 | ELPNIKREISETEAKALLKCRQKK | 2.07
187 | ELPNIKREISETEAKALLKARQKK | 2.99
188 | ELPNIKREISETEAKALLKGRQKK | 2.78
